This is an account of results in patent US11466255B2, “Methods and compositions for converting non-endocrine pancreatic tissue into insulin-producing cells” (UNIVERSITY OF MIAMI, priority 2015, dated 2022).

Common to all, as to format: cell-based, human
Test [1] relates to hNEPT. In words: hNEPT culture exposed to BMP-7: cluster/colony formation and DNA content. Here is the method:
Fresh hNEPT preparations were allowed to attach to tissue culture-treated plates for 48 h and subsequently exposed to BMP-7. The rationale behind the use of BMP-7 was that it may help reduce the incidence of EMT in cultured pancreatic exocrine tissue, as EMT has proven an obstacle for the formation of endocrine cells from exocrine cells in a similar setting^7. Control aliquots were cultured in the same conditions but without BMP-7. […] The growth of the colonies in the BMP-7 group was followed by in situ live cell imaging (Incucyte Zoom) (FIG. 1b and FIG. 8). This increase in size was paralleled by an average increase of 4.8-fold in DNA content from the time of attachment to day 12 (n=2), which further evidenced active cell proliferation.
hNEPT culture: Human islets were isolated at the DRI's cGMP facility following methods already described54, and hNEPT samples (2-4 ml) were obtained as an isolation byproduct. […]
Real-time colony growth assessment: In order to observe the formation and growth of the colonies we used an IncuCyteZOOM EssenBiosciences instrument (Ann Arbor, Michigan) within a Symphony Incubator purchased from VWR (Atlanta Ga.). The cells remain in their own culturing flask or plate, where growth can be observed and quantified over time. […]

Test [2] has as its system hNEPT. In words: Immunofluorescence / ImageJ quantification of C-peptide+ cells. Particulars: 12 fields/sample, n=3; controls 8.15±0.92%, P<0.0001. Here is the method: Immunofluorescence characterization of the insulin-expressing clusters was conducted. To rule out potential false-positives derived from the presence of residual insulin in the culture medium, we stained for C-peptide, which is present in pro-insulin and therefore indicates de novo synthesis of insulin. […] In order to quantify the number of C-peptide+ cells after BMP-7 treatment ImageJ and the FIJI Analyze particles feature was used. Using this software on an average of 12 fields/sample (n=3), the percentage of C-peptide+cells in hNEPT populations after BMP-7 treatment was determined to be 30.43±4.07% vs. 8.15±0.92% in controls (P<0.0001).
IF analysis and confocal microscopy: The present study was conducted on human pancreatic samples from cadaveric organ donors. […]
Imaging analysis: For general quantification purposes (e.g., percentage of C-peptide+ cells) we used ImageJ and the FIJI Analyze particles feature. […] Images were then binarized for quantification. The Watershed function was used on the DAPI channel to separate touching nuclei, which were subsequently counted by the Analyze particle command. Subsequently, we detected nuclei that were overlapping with C-peptide+ areas using the AND operator under the Image calculator feature of FIJI. Finally, we quantified the number of nuclei in the overlap area and calculated the ratio of the overlapping nuclei against the total nuclei.

For test [3], the system named is SMAD1/5/8 phosphorylation. In words: SMAD1/5/8 phosphorylation by immunofluorescence in hNEPT. Particulars: 2 h after the addition of BMP-7 to hNEPT. The source says:
In order to study the mechanism behind the effects of BMP-7 on hNEPT preparations, the potential receptors engaged by BMP-7 were studied. BMP-7 binds with high affinity to heteromeric complexes formed by BMPR2 (Bone Morphogenetic Receptor Type II) and the activin-like kinase (ALK) ALK3, ALK6 or ALK2 type I serine/threonine kinase receptors^25. […] These findings are consistent with numerous reports that identify ALK3 as the receptor that mediates BMP-7 function in several biological models of regeneration, including adult liver regrowth^23, differentiation of epidermal Langerhans cells^24 and kidney regeneration and fibrosis reversa1^22. The activation of the canonical BMP signaling pathway entails the phosphorylation of SMAD1/5/8 upon ALK3 engagement.
IF analysis and confocal microscopy: The present study was conducted on human pancreatic samples from cadaveric organ donors. In addition to our own cGMP facility, the Network for Pancreatic Organ Donors with Diabetes (nPOD, www.jdrfnpod.org)55 also provided tissue sections. For IF staining, 5 μm-thick frozen sections or cultured cells were fixed with 4% paraformaldehyde (PFA) for 20 min at room temperature, rinsed with HBSS, washed (3 x 5 min each) with lx Supersensitive Wash Buffer (Biogenex HK583-5K) and then incubated in permeabilization buffer PBSTr [0.2% Triton X-100 (Sigma-Aldrich) in PBS] for 30 min at room temperature. […]

For test [4], the system named is P2RY1+/ALK3+ sorted cells. The test is described as follows: Sorted P2RY1+/ALK3+ cells treated with BMP-7 with or without dorsomorphin. As to conditions: 100 ng/μl BMP-7, qRT-PCR and IF. Here is the method: A 2-color FACS selection for dissociated hNEPT (as well as collagenase-digested MPDs) that are positive for the surface markers P2RY1 and ALK3 (Life Span Biosciences) is conducted. This approach has already been successfully tested, as is shown herein. Sorted cells are treated with 100 ng/μl of BMP-7 with or without dorsomorphin, which inhibits BMP signaling. Additional aliquots receive no treatment. […] This is determined by qRT-PCR and IF as above, as well as ultrastructural analyses by TEM.
A general note: Quantitative PCR measures a nucleic acid by following its amplification.

B1: BMP-7: 35 kDa homodimeric protein of the TGF-β superfamily; FDA-approved agent; human mature chain SEQ ID NO:1/2 (protein, listed as Homo sapiens)
chain: IRSTGSKQRSQNRSKTPKNQEALRMANVAENSSSDQRQACKKHELYVSFRDLGWQDWIIAPEGYAAYYCEGECAFPLNSYMNATNHAIVQTLVHFINPETVPKPCCAPTQLNAISVLYFDDSSNVILKKYRNMVVRACGCH
modifications: homodimer; human mature chain of BMP-7 (NCBI Reference Sequence NM_001719.2) comprising peptide from 293-431
Consider B1, for which, in the test with hNEPT [1] (100 ng/ml BMP-7, course of 12 days, controls became mesenchymal-like monolayers), the “formation of cellular clusters” value is recorded as “induced the formation of abundant cellular clusters”. Moreover, the “average increase in DNA content from the time of attachment to day 12” value in the test with hNEPT [1] (BMP-7 group, n=2) is listed as 4.8 fold. Moreover, the “percentage of C-peptide+ cells in hNEPT populations after treatment” value with hNEPT [2] is on record as 30.43±4.07%. Besides, in test [3], the “SMAD1/5/8 phosphorylation in ALK3-expressing cells” value is listed as “presented SMAD1/5/8 phosphorylation”. For the same molecule, the “expression of endocrine differentiation genes vs. control or BMP-7+dorsomorphin” value in test [4] is “induces the expression of endocrine differentiation genes”.
